Changes are numbered by the printed parent chain. Each block holds one binder with its values, some of them ahead of it.
Assays:
[1] = target: T1, human Claudin18.2 (CLDN18.2), full length, on cells (human); experiment: cellular ELISA on fixed HEK293-CLDN18.2 cells
T1 construct: also called CLDN18.2-FL; HEK293-CLDN18.2 cells
Experimental: (§1) HEK293-CLDN18.1 and HEK293-CLDN18.2 cells were resuscitated two weeks in advance, cultured with DMEM complete culture medium containing 10% fetal bovine serum at 37° C., 5% CO₂. When the cells grew to 80%-90% confluency, they were digested with 0.5 mM EDTA-PBS (Sigma) at room temperature, centrifuged at 1000 rpm for 5 minutes, the supernatant was discarded. Cells were resuspended in DMEM complete culture medium, the cell concentration was adjusted to 6×10⁵ cells/ml. Cells were plated on 96-well cell plates (Corning) pre-coated with polylysine at 2.5 μg/well, 100 μl per well, incubated at 37° C., 5% CO₂ for 24 hours, making cells evenly and completely plated on the bottom of the well. The supernatant was aspirated, and the cells were fixed with 4% paraformaldehyde at room temperature for 20 minutes, washed 3 times with 200 μl PBS, 2 minutes at each time. The well plates were blocked with 200 μl of 3% BSA-PBS at 37° C. for 1 hour. Each chimeric antibody was diluted with 3% BSA-PBS to a concentration of 6 μg/ml, and diluted in a 6-fold gradient to a total of 7 concentrations. At the same time, IMAB362-similar-hG1 diluted in the same concentration gradient as the positive control, and human IgG1, kappa isotype control antibody (hereinafter referred to as Isotype, provided by CrownBio (Taicang) Co., Ltd.) as the negative control were added to HEK293-CLDN18.2 and HEK293-CLDN18.1 cell plates, respectively. The cells were incubated at 37° C. for 1 hour, washed 5 times with PBS. Incubation with HRP-anti human IgG (Jackson) diluted 1:10000 in blocking solution was performed at 37° C. for 1 hour followed by washing 5 times with PBS. 100 μl of TMB one-component color developing solution was added, protected from light at room temperature for 5-10 minutes, terminated with 50 μl of 2M sulfuric acid, OD450 was read on the microplate reader. Data processing: the original data was put into GraphPad 5.0 software for plotting and calculation.

[2] = target: T2, human Claudin18.1 (CLDN18.1), full length, on cells (human, UniProt P56856 1-261); experiment: cellular ELISA on fixed HEK293-CLDN18.1 cells, HRP-anti human IgG, OD450
T2 construct: HEK293-CLDN18.1 cells carry a fusion with green fluorescent protein (ZsGreen); CHO-K1-CLDN18.1 cells carry pcDNA3.1-CLDN18.1; The cell line is named under assay; also called CLDN18.1-FL; HEK293-CLDN18.1 cells
Experimental: as §1

[3] = target: T1, human Claudin18.2 (CLDN18.2), full …; experiment: FACS on CHO-K1-CLDN18.2 cells, PE-anti human Fc, MFI
Experimental: (§2) CHO-K1-CLDN18.2 cells and CHO-K1-CLDN18.1 cells (prepared in Example 5) were digested with gastric cancer cell digestion solution at 37° C. for 15 minutes, respectively; terminated with complete culture medium, centrifuged at 1000 rpm for 5 minutes, the supernatant was discarded; the cells were resuspended with 2% fetal bovine serum-PBS diluent, the cells were adjusted to 1×10⁶ cells/ml, 100 μl of cell suspension was added to each well of the 96-well U-shaped-bottom plate; 2% fetal bovine serum-PBS was used to dilute the humanized antibody and the control antibody to final concentrations of 10 μg/ml, 2 μg/ml, 0.4 μg/ml, 0.08 μg/ml and 0.016 μg/ml, respectively, mixed well with the cells in equal volume, incubated at 4° C. for 1 hour; centrifuged at 1000 rpm for 5 minutes, the supernatant was discarded; 200 μl Cell Stain Buffer (Biolegend) was added to each well to wash twice, centrifuged at 1000 rpm for 5 minutes at each time and the supernatant was discarded; 100 μl of PE-anti human Fc antibody (Biolegend) was added, incubated at 4° C. for 1 hour; washed with Cell Stain Buffer (Biolegend) twice, centrifuged at 1000 rpm for 5 minutes at each time and the supernatant was discarded. 300 μl Cell Stain Buffer was added to resuspend the cells, and detected by BD FACS Jazz flow cytometry analyzer.

[4] = target: T2, human Claudin18.1 (CLDN18.1), full …; experiment: FACS on CHO-K1-CLDN18.1 cells, PE-anti human Fc, MFI
Experimental: as §2

EC50 [1]: 1.75 nM
binding result [2]: no binding (tested: 6000 ng/ml)
B1: 18CHI (antibody, V domains shown)
VH: QVQLKESGPGLVAPSQSLSITCTVSGFSLTSYGVSWVRQPPGKGLEWLGVIWGDGSTNYHSALISRLSISKDNSKSQVFLKLNSLQTDDTATYYCAGGLRLWFAYWGQGTLVTVSA
VL: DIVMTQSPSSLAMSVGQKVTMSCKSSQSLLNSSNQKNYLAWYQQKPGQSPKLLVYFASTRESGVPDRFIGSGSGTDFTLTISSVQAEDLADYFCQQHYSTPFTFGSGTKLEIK
notes: Human-murine chimeric antibody with the constant region of human IgG1; also called chimeric antibody of C40B10D9

binding result [3]: binds
binding result [4]: no binding
B2: Hu330-3 (antibody, V domains shown)
VH: EVQLLESGGGLVQPGGSLRLSCAASGFGFSDYGMAWVRQAPGKGLEWVSFISNSAYSIYYADTVTGRFTISRDNSKNTLYLQMNSLRAEDTAVYYCARLGRGNSFAYWGQGTLVTVSS
VL: DIVMTQSPDSLAVSLGERATINCKSSQSLLNSGNQKNYLTWYQQKPGQPPKLLIYWGSTRESGVPDRFSGSGSGTDFTLTISSLQAEDVAVYYCQNELFYPLTFGQGTKLEIK
notes: Humanized full antibody; also called humanized antibody Hu330-3

EC50 (read off the curve) [3]: ~0.2 µg/mL
binding result [4]: no binding
B3: Hu330-5 (antibody, V domains shown)
VH: B2 VH with L5V, S75A, T78S
VL: DIVMTQSPLSLPVTLGQPASISCKSSQSLLNSGNQKNYLTWYQQRPGQSPRLLIYWGSTRESGVPDRFSGSGSGTDFTLKISRVEAEDVGVYYCQNELFYPLTFGQGTKLEIK
notes: Humanized full antibody; also called humanized antibody Hu330-5

EC50 (read off the curve) [3]: ~0.2 µg/mL
binding result [4]: no binding
B4: Hu330-6 (antibody, V domains shown)
VH: B2 VH
VL: B3 VL
notes: Humanized full antibody; also called humanized antibody Hu330-6

Source: patent US20220119517A1 (NANJING SANHOME PHARMACEUTICAL, published 2022)
